How the values were obtained:
H3 HA = H3 HA (Influenza A virus H3N2, probably A/Hong …, UniProt Q91MA7, strain); assay: SEC; settings: both partners purified
[1] = target: H3 HA (recombinant HA of the panel) (Influenza A virus H3N2, probably A/Hong …, UniProt Q91MA7, biotinylated (in the BLI assay)); assay: BLI; settings: both partners purified

B1: PN-SIA28 Fab (Fab, V domains shown)
VH: QVQLVESGGGVVQPGRSLRLSCAASGFPFSSYGMHWVRQAPGKGLEWVAGVSYDGSYKYYADSVKGRFTISRDSSKSTLYLQMNSLRPEDTAVYYCARPSAIFGIYIILNGLDVWGQGTTVTVSS
VL: EIVLTQSPSSVSASVGDRVTITCRATQGISSWLAWYQQKPGKPPKLLIFGASSLQSGVPSRFSGSGSGTDFTLTISSLQPEDFATYFCQQAHSFPLTFGGGTKVEIK
binding result (H3 HA): binds

B2: PN-SIA28 Fab (Fab, V domains shown)
VH: QVQLVESGGGVVQPGRSLRLSCAASGFPFSSYGMHWVRQAPGKGLEWVAGVSYDGSYKYYADSVKGRFTISRDSSKSTLYLQMNSLRPEDTAVYYCARPSAIFGIYIILNGLDVWGQGTTVTVSS
VL: EIVLTQSPSSVSASVGDRVTITCRATQGISSWLAWYQQKPGKPPKLLIFGASSLQSGVPSRFSGSGSGTDFTLTISSLQPEDFATYFCQQAHSFPLTFGGGTKVEIK
notes: also called PN-SIA28 Fab fragment
binding result [1]: binds

Source: article PMC9734383 (Nature Communications, 2022)
